From publication PMC5826766

System: CN(CC(=O)O)C(=O)CN
Test: concentration-dependent cellular uptake, HPLC-MS/MS, mock-corrected, Km
Type: cell-based, Homo sapiens

**Q.** For “hPHT1 (human peptide/histidine transporter 1, SLC15A4) (Homo sapiens; L14A/L15A/L318A/V319A)”, which Km is on record?
**A.** Its Km is 1690 ± 300 µM.

**Q.** What about the Vmax of the same substance?
**A.** Its Vmax is 0.0001 µmol/min/mg.

**Q.** What about the Vmax/Km of the same substance?
**A.** The Vmax/Km was 0.0592 µL/min/mg.
